Measured values from paper PMC8749432.

Tests used:
[1] = molecular target: HIV-1 BG505.W6M.B1 envelope glycoprotein I423A on SHIV-BG505 virions (HIV-1)
[2] = molecular target: HIV-1 BG505.W6M.B1 envelope glycoprotein A204E on SHIV-BG505 virions (HIV-1)
[3] = molecular target: HIV-1 BG505.W6M.B1 envelope glycoprotein L193A on SHIV-BG505 virions (HIV-1)

Substance “Soluble rhesus CD4 (Met1-Trp390) with C-terminal 6×His tag (from UniProt P16003 26-390) (domain or fragment)” has a neutralisation of SHIV-BG505 infection of TZM-bl cells by soluble rhCD4; sensitivity against WT SHIV (fold more sensitive than WT SHIV) [1] of 30, a neutralisation of SHIV-BG505 infection of TZM-bl cells by soluble rhCD4; sensitivity against WT SHIV (fold more sensitive than WT SHIV) [2] of 1500 and a neutralisation of SHIV-BG505 infection of TZM-bl cells by soluble rhCD4; sensitivity against WT SHIV (fold more sensitive than WT SHIV) [3] of 3.
